Target: T1, Recombinant Human FGF23 (Fibroblast Growth Factor 23), Q9GZV9
T1 chain: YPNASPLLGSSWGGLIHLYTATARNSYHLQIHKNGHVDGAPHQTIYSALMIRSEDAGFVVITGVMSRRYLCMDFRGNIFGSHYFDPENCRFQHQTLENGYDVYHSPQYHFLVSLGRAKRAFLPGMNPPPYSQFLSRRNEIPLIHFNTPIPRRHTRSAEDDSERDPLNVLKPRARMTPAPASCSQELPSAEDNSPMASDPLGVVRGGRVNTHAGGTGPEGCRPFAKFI

B1: Recombinant human t-PA (tissue plasminogen activator) (protein)
chain: SYQVICRDEKTQMIYQQHQSWLRPVLRSNRVEYCWCNSGRAQCHSVPVKSCSEPRCFNGGTCQQALYFSDFVCQCPEGFAGKCCEIDTRATCYEDQGISYRGTWSTAESGAECTNWNSSALAQKPYSGRRPDAIRLGLGNHNYCRNPDRDSKPWCYVFKAGKYSSEFCSTPACSEGNSDCYFGNGSAYRGTHSLTESGASCLPWNSMILIGKVYTAQNPSAQALGLGKHNYCRNPDGDAKPWCHVLKNRRLTWEYCDVPSCSTCGLRQYSQPQFRIKGGLFADIASHPWQAAIFAKHRRSPGERFLCGGILISSCWILSAAHCFQERFPPHHLTVILGRTYRVVPGEEEQKFEVEKYIVHKEFDDDTYDNDIALLQLKSDSSRCAQESSVVRTVCLPPADLQLPDWTECELSGYGKHEALSPFYSERLKEAHVRLYPSSRCTSQHLLNRTVTDNMLCAGDTRSGGPQANLHDACQGDSGGPLVCLNDGRMTLVGIISWGLGCGQKDVPGVYTKVTNYLDWIRDNMRP
- in vitro proteolysis of FGF23, silver stained SDS-PAGE gel: smaller fragments are generated on a silver stained SDS-PAGE gel indicating proteolytic cleavage

Source: patent publication US20200046811
